According to the FLAb antibody collection (doi:10.7554/elife.23156):

B1: scFv; the commonest letter at each place (parent)
chain 1: EVKLDETGGGLVQPGRPMKLSCVASGFTFSDYWMNWVRQSPEKGLEWVAQIRNKPYNYETYYSDSVKGRFTISRDDSKSSVYLQMNNLRVEDMGIYYCTGSYYGMDYWGQGTSVTVS
chain 2: DVVMTQTPLSLPVSLGDQASISCRSSQSLVHSNGNTYLRWYLQKPGQSPKVLIYKVSNRFSGVPDRFSGSGSGTDFTLKISRVEAEDLGVYFCSQSTHVPWTFGGGTKLEIK

Legend:
fluorescein = variants of: B1; test: Kd (Tite-Seq); conditions: with fluorescein; format: scFv 4-4-20, heavy + light
[1] = variants of: B1; test: yeast surface expression (ratio to wild type); higher = more expressed; conditions: format: scFv 4-4-20, heavy + light

| Variant | Kd (fluorescein) | yeast surface expression [1] |
| --- | --- | --- |
| chain 1 Y103I D106Q | ≥ 10 µM | 0.516 |
| chain 1 W33Y | ≥ 10 µM | 0.976 |
| chain 1 S101W M105I | ≥ 10 µM | 0.442 |
| chain 1 S101V M105H W108H | ≥ 10 µM | 0.3 |
| chain 1 S101F W108F | ≥ 10 µM | 0.199 |
| chain 1 W33G V37Y | ≥ 10 µM | 0.672 |
| chain 1 W33G V37L | ≥ 10 µM | 0.49 |
| chain 1 M105Y D106A | ≥ 10 µM | 0.432 |
| chain 1 D106I W108N | ≥ 10 µM | 0.254 |
| chain 1 D106I W108S | ≥ 10 µM | 0.397 |
| chain 1 G109Q | ≥ 10 µM | 0.391 |
| chain 1 S30Y Y32P | ≥ 10 µM | 0.691 |
| chain 1 M34K V37W | ≥ 10 µM | 0.494 |
| chain 1 D31I | ≥ 10 µM | 0.531 |
| chain 1 D31P | ≥ 10 µM | 0.853 |
| chain 1 G100W Y102N D106L | ≥ 10 µM | 0.286 |
| chain 1 M105L G109C | ≥ 10 µM | 0.26 |
| chain 1 S101K Y107V | ≥ 10 µM | 0.507 |
| chain 1 S30R N35V | ≥ 10 µM | 0.567 |
| chain 1 D31P Y32W | ≥ 10 µM | 0.762 |
| chain 1 D31P Y32L | ≥ 10 µM | 0.86 |
| chain 1 S101W Y107W | ≥ 10 µM | 0.386 |
| chain 1 W33F W36C | ≥ 10 µM | 0.455 |
| chain 1 Y102N M105C | ≥ 10 µM | 1.22 |
| chain 1 Y107A G109M | ≥ 10 µM | 0.209 |
| chain 1 Y103A G104A | ≥ 10 µM | 0.911 |
| chain 1 G100L Y102W | ≥ 10 µM | 0.497 |
| chain 1 G104T Y107I W108Y | ≥ 10 µM | 0.224 |

Further lines, with some results ahead:

| Kd (fluorescein) | Variant | yeast surface expression [1] |
| --- | --- | --- |
| ≥ 10 µM | chain 1 M105V Y107H | 0.957 |
| ≥ 10 µM | chain 1 F29A D31P | 0.922 |
| ≥ 10 µM | chain 1 S30N N35T | 0.803 |
| ≥ 10 µM | chain 1 S30P D31S N35P | 0.757 |
| ≥ 10 µM | chain 1 Y103L M105G | 1.02 |
| 0.116 µM | chain 1 T28W D31F | 0.553 |
| 7.33 µM | chain 1 Y107A | 1 |
| 1.72 µM | chain 1 Y107E | 0.803 |
| 0.0017 µM | chain 1 Y107F | 0.928 |
| ≥ 10 µM | chain 1 M34F N35E | 0.811 |
| ≥ 10 µM | chain 1 G104M M105R | 0.619 |
| 0.205 µM | chain 1 Y32W M34N | 0.386 |
| ≥ 10 µM | chain 1 S101K Y103T | 0.456 |
| 0.00279 µM | chain 1 D31H M34Y | 0.671 |
| ≥ 10 µM | chain 1 D106N G109K | 0.277 |
| ≥ 10 µM | chain 1 Y32E W36H | 0.342 |
| ≥ 10 µM | chain 1 T28M V37G | 0.468 |
| 4.37 µM | chain 1 S30D V37F | 0.942 |
| ≥ 10 µM | chain 1 T28I W36A | 0.354 |
| ≥ 10 µM | chain 1 S101I Y102L | 0.376 |
| ≥ 10 µM | chain 1 M105Q G109H | 0.299 |
| ≥ 10 µM | chain 1 G100A D106W | 0.393 |
| ≥ 10 µM | chain 1 T28I Y32T | 0.869 |
| 0.195 µM | chain 1 M34E N35H | 0.4 |
| 0.00343 µM | chain 1 D31A | 0.772 |
| 0.00258 µM | chain 1 D31Q | 0.877 |
| 0.00166 µM | chain 1 D31G | 0.887 |
| 0.00245 µM | chain 1 D31S | 0.902 |
| 0.004 µM | chain 1 S30H W36F | 0.728 |
| 0.0353 µM | chain 1 M34I V37S | 0.776 |
